In the DeepSol protein solubility set:

Test: soluble on expression in E. coli; label from the status in PepcDB or PDB records

Sequence | soluble on expression in E. coli
SDSSAVITQISKEEARGPLRGKGDQKSAASQKPRSRGILHSLFCCVCRDDGEALPAHSGAPLLVEENGAIPKQTPVQYLLPEAKAQDSDKICVVIDLDETLVHSSFKPVNNADFIIPVEIDGVVHQVYVLKRPHVDEFLQRMGELFECVLFTASLAKYADPVADLLDKWGAFRARLFRESCVFHRGNYVKDLSRLGRDLRRVLILDNSPASYVFHPDNAVPVASWFDNMSDTELHDLLPFFEQLSRVDDVYSVLRQPRPGS | soluble
MGSDKIHHHHHHYEKIYDVNHVCYYTLTSVELQKFVKTAEIITPLNADNKTTITKDTILVGNPEENPLTKKYIGFFKIKINKTFPGKNKGIIEKQIINGHTVILLAGSDIQGTYASIITFANLNDIPENPIICETSNKVNIYSTSLNSEYFRDFIEKNILTPKEIEKVKSLSYKLKGKDKKATIENIAKWVANNIKYDYDKCKKIESGKFSWDEYNTPSETVKTKKGVCLDYATLTSALLLNDNIIPYMLDVALYNTSSLKISSYHASVAVKIDNTYFVIDQQPYLIPINEYTAQTFEDNLRIASIVMFRVVKERDGIKLIKEKEVPGIAIYGDLINLLEMRFNN | not soluble
MSYYHHHHHHLESTSLYKKAGSENLYFQGARDQGADEAREYEPGQPGMYELEFPAPQLSSSDGRGPVLVHALEGFSDAGHAIRLAAAHLKAALDTELVASFAIDELLDYRSRRPLMTFKTDHFTHSDDPELSLYALRDSIGTPFLLLAGLEPDLKWERFITAVRLLAERLGVRQTIGLGTVPMAVPHTRPITMTAHSNNRELISDFQPSISEIQVPGSASNLLEYRMAQHGHEVVGFTVHVPHYLTQTDYPAAAQALLEQVAKTGSLQLPLAVLAEAAAEVQAKIDEQVQASAEVAQVVAALERQYDAFIDAQENRSLLTRDEDLPSGDELGAEFERFLAQQAEKKSDDDP | soluble
MVDEDKKSGTRVFKKTSPNGKITTYLGKRDFIDRGDYVDLIDGMVLIDEEYIKDNRKVTAHLLAAFRYGREDLDVLGLTFRKDLISETFQVYPQTDKSISRPLSRLQERLKRKLGANAFPFWFEVAPKSASSVTLQPAPGDTGKPCGVDYELKTFVAVTDGSSGEKPKKSALSNTVRLAIRKLTYAPFESRPQPMVDVSKYFMMSSGLLHMEVSLDKEMYYHGESISVNVHIQNNSNKTVKKLKIYIIQVADICLFTTASYSCEVARIESNEGFPVGPGGTLSKVFAVCPLLSNNKDKRGLALDGQLKHEDTNLASSTILDSKTSKESLGIVVQYRVKVRAVLGPLNGELFAELPFTLTHSKPPESPERTDRGLPSIEATNGSEPVDIDLIQLHEELEPRYDDDLIFEDFARMRLHGNDSEDQPSPSANLPPSLL | not soluble
MSLESYVPNNEAKFPENISYGSMGGPTFSTVISELGGGKEQRKVNWTHSRNRYNVAYNTASSDQCSALISFFYAHRGKALPFRFKDWSDYTATGQNIGVGDGKSLNFQLVKRYHAGQYSYVRKISRPVVGTVKMSLGEVSQEYERDYSVDYNSGVVTFAVPPAHNATIHADFEFDVLVRFDTDFLAFAMEAHGNYGCHGVSLVEVSEEGHHHHHH | soluble
AKFSAIITDKVGLHARPASVLAKEASKFSSNITIIANEKQGNLKSIMNVMAMAIKTGTEITIQADGNDADQAIQAIKQTMIDTALIQG | soluble
MSLTALMVGTGRGAKMGILIKNGEVLEAVNDVQTVVFDKTGTLTVGKPQVTDIIGDSKQVLRIAASLEDSSEHPLAAAILAKAKADNISTLPVENFTAIEGKGVAATISGQQGVVGNQKLLGDLTFNKQLQQQETRLQNEAKTVVFVGLDDRIIGLIAIQDAPKPTSKEAIAALRARGLRTVMLTGDNQRVAQAVAQQIGIDEVIADVLPGDKAAQIKQFQHDEGHHHHHH | soluble
MSLSHFDSQAPTWDENPKRSLMINAIAEALRSHLPLREDFRVMDYGCGTGELSLAILPWVGYVEGIDTSKGMIDRFSQKIQERNLPNIKAKFMRAGEALEGEFDLVVCNMVLHHIPDPLLYIRQFESSIRPGGHLAIIDLDKEDGSFHPQGTPGVFHQGFSYEEIRAWLDYCYLEERLHHPSLHLIQKNEREYPLTLTLAQKPHEGHHHHHH | soluble
MSEPILKVENLKKYFPVRRGFLSALRGEPQKFVKAVDGVSFEIYKQQVFALVGESGCGKTTTGKLIVKLLEPTDGKIYLEGQDVTELRTKEEIKAYRRKVQMIFQDPFSSMNPRFRIYDVLEEPLLIHGIGETRAEREELIYKALEMVKITPPEEYVGRFPHMLSGGQRQRVAIARALILNPTFVVADEPVSMLDVSIRAEILELMKELKEKMGVTYLYITHDLSTARYFADWIAVMYLGRIVEMGPAKEIIDNPLHPYTRALLAAVPEPIPERKDVIKELPIKGEVPSAVNIPSGCRFHPRCIYFKKGLCDVKQPQLIEYSHNHWVECHRVGEI | soluble
MGSDKIHHHHHHMEKTVQLEHMNTRVFVEGAYDTALIPLGSCESHGDHLPFAMDALTAHKLALGVAERMEKVFVLPPTFFGFSQHYWHKPMSISLSQDTNIRVIADILDSLAHWKIRNVLIINGHDGNISAIDVAARAARLRHPDMKIGSLDAWWVTAGNLLPKDTFEVWNGLGHGGEGETSIGLACFPELVDMAHARGMIPEVDENVKELWDFSELTDYGATGAPEKATREKGQAMYDVLVDYLVAYLTKRRDTNWAYNPK | not soluble
MPHVLVLNASYEPLGVVPLRRALVLVLENKAVCLEESGAFMHSATVTVPAPSVVRLKRFVRVPYRGPVPLTRRALFARDGGRCMYCGGVATSVDHVIPRSRGGQHAWDNVVASCRRCNHVKADRHLFEIGWRLRHKPAPPTGLAWRIIGTGHRDPRWLPYLQPYGADDAMARIDGISAAAALEHHHHHH | not soluble
MALVPVYCLCRQPYNVNHFMIECGLCQDWFHGSCVGIEEENAVDIDIYHCPDCEAVFGPSIMKNWH | soluble
MSLCGIAGLFNCNLPADELRLDQAVAKLTHRGPDDRGIFLDGRFGMGHTRLSIIDLAGGHQPLFSEDRRLALIANGEIYNFIELRSELTAAGFRFQTQSDSEVILHAYLAFGEGFLERIQGMFAFALYDALEGRLILARDRLGIKPLFLARRPDGIAFASEIKALLPLLDQPREIDPQGLAQYFQNQFSTGATTVLRGVERVLPGEAVVVEAGKTTRRFRYWSPLAVRTEELDFDEAAARFDALMERVMVEHMRSDVPFGLFLSGGVDSSLLLALLTRYSGEPIRTFSVGFPGTSLTDELPLAEGLARRFRSRHREIRPGPQDILHSLPLTVWAADDLMRDNASLPTSLLARAAGEELKVVFSGEGGDEVFAGYGRYRTSPLERLFKSLLAPGSGGFRTRGSFRGRWPKTLFGPALLAAAQSARRPVQESWRETPREWSDLQRMQYVDLCHALPDNLLVKADRMLMAWGVEGRVPFLDHRVVEFGLSLPDRLKIEGRQGKLFLKRWGERLVPAEQLYARKEGHHHHHH | not soluble
MSKYKTILQSNKDELHSLYEIANQDSWKPIYHIHPPFGLMNDPNGVSYYNDEYHVFYQWYPFGPIHGMKHWGHVRSKDLINWERMPVAIIPTESYESHGAYSGSAIVKDGLLHLLYTGNIKKPDDSRDAKQCMASMDSQYTMTKYSNNPVIDIIPDGYTKHVRDPKVWKHNDMYYMLLGAQRENKTGTLLLYKSQDLYNWHFQGEITTNLKEFGFMWECPDYFQLSGKDVLLFSPQGIEKDGENFHNVYNVVYAIGHFDIKNLYFHVDSYYEADKGFDFYAPQTLEDSTSRRLLFAWAGSSEITYPSDDYMWAHCLTLPRELTLEDNILKQKPVSELTKLRTTKKDISGDITAGLNVLSTLDDEDSYELIVTLKTEDAKRFGLSLFHNEEECFPITFNREQGTISIDRGNFYHQFGGEYGFERCKKIDIQDTIELQIFVDKSIVEIFLYDGSTVFTSRVFPRKDMKHHIAIFSDAKLNFTITQYKLKRGIVLEHHHHHH | soluble
MTHSLVCPETVSRVSSVLNRNTRQFGKKHLFDQDEETCWNSDQGPSQWVTLEFPQLIRVSQLQIQFQGGFSSRRGCLEGSQGTQALHKIVDFYPEDNNSLQTFPIPAAEVDRLKVTFEDATDFFGRVVIYHLRVLGEKV | soluble
SLMDVKCETPNCPFFMSVNTQPLCHECSERRQKNQN | soluble
MTLEQQDRTEQQLAALNAQVRQDLCYLNYPAANWSKPVSTSDGQLVSDVVIIGGGMCGLVAWHALTRAGIANIRIVDRAAKGEEGPWVTYARMETLRSPKNLLGPALGMASLTFRAWYTARFGKEAWEELFRIPRPMWMEYLSWYRQVMEIPVENNIHVTRVIPRLDGLLELEIEGGKADPIITRKLVMATGRDGLGEPTIPDFVKGMPRHVSWAHSADMIDFQRLKGKRVVVIGVGASAVDNAAEALEQGAGEVRLLARRKTMPTINKLMGIGSYGVTAGFAKIDPEWRWRLMDYSVKQQTPAPHNSTLRVSRHSNAYFHFDCGIQSMKEEGGEVVITTINGRVFRTDFVILGTGFSIDPVSRPELEMFNGQIACWEDRYTPPAGEENPGLGRFPWLQDDFSFTEKEPGAAPWLQHIHCFNYGSSVSLGKVSGDIPAISEGALWLARGIAASLFIADIDHHWEALKAYEKPELDGSEWTDADADPSMQKTALEHHHHHH | soluble
AEPESCGTVRFSDVGWTDITATTATATTILEALGYETDVKVLSVPVTYTSLKNKDIDVFLGNWMPTMEADIAPYREDKSVETVRENLAGAKYTLATNAKGAELGIKDFKDIAAHKDELDGKIYGIEPGNDGNRLIIDMVEKGTFDLKGFEVVESSEQGMLAQVARAEKSGDPIVFLGWEPHPMNANFKLTYLSGGDDVFGPNYGGATVHTNVRAGYTTECPNVDKLLQNLSFSLQMENEIMGKILNDGEDPEKAAAAWLKDNPQSIEPWLSGVATKDGGDGLAAVKAALGLEHHHHHH | soluble
GPGSMSGIKIEEVISTTKKERVAAHSHVKGLGLNPDGTTKHIADGFVGQEKAREAAGIAVELIRSKKMAGRALLFAGPPGTGKTALALGIAKELGPKVPFCPMVGSEVYSAEVKKTEVLMENFRRAIGLRIKENKEVYEGEVTELRAEETDNPLGGYGKSISHVIITLKSQKGSKLLKLDAAIYESLEKEKVSVGDVIYIEASSGAVKRVGRSDAYIGDHDLEADEYVPIPKGDVHKKKEVIQDVTLHDLDMANAKPSQGQDALSIVSSMMRHKKTEVTEKLRQEINKVVNKYIDQGVAELVPGVLFIDEVHMLDIECFTYLNKALESTLAPVVIFATNRGSCRIRGTEIRAPHGMPTDLLDRLLIIRTMNYDVSEITSIVEIRAHVEGVKISEAALTKLGIIGESTSLRFVVQLLTPALIIAETNGREMLEEEDVDLVAELFKDGKASARQLQDHAEEYVYQ | soluble
MAEEKFFLGRQPILDREQRLYGFELLFRSADSLHANVTDYLQASASVIFDALSSFGFREILGKHKGFINVNADVLMSEALELLPPEKVVIELLEHVPITETVISRCHELREKGFSLALDDHIYEPVYEPLYHLVDVIKVDLFRTGMENLASEVETLRKWNTKLLAEKVETVEQYERCADLGFTYFQGYYFARP | not soluble
MASRRELKKNVNYIAGELFTECLINSMFIPGTDKAKADELMAEVLRMQDEFVSRISHTEPGNVKGFYKKFRVDFNAKVNEIIEAIGKLN | not soluble
MSLSDPNTSGSGVVGESSGVRVAIEGCGHGCLHSIYASVERAAALKGWDGVDLLIIGGDFQAVRNSNDMACMSVPNKYKEIGDFHEYYSGQRTAPYLTIFVGGNHEASNHLFELYYGGWVAPNIYYMGAANVLRFGPLRIAGLSGIWKGRDYRKPHFERLPYNDDDIKSIYHVRELDVRKLLQVRTQIDVGLSHDWPRQIEYCGDWQQLFRAKPLFRRDSQNGTLGSTAAEYVLNRLRPAYWFSAHLHVKFAASVQHGPQEVVPNRQYGLDGASLTSMLSETEEASRQTGYSQAEAEPNAHAVSETGTTEEGHHHHHH | soluble
